Like-named read-outs stand apart in the source and are kept apart here. Numbered stars: 1 amine (or outer) side, 2 acyl side, 3 side chain; on linkers, the order of the positions; unused ones are H or OH. Bridge positions count the residues as written; N and C are the ends. Square brackets hold non-standard residues; d marks the D form. Ends that are not written are not given here. * marks the point of attachment. RbOHPhe4CONH2 = (2S,3R)-2-amino-3-(4-carbamoylphenyl)-3-hydroxypropanoic acid, NC(=O)c1ccc([C@@H](O[*:3])[C@H](N[*:1])C(=O)[*:2])cc1; bhcLeu = (1R,3S)-3-aminocyclopentane-1-carboxylic acid, O=C([C@@H]1CC[C@H](N[*:1])C1)[*:2]; Trp(βS-Me,7-OMe) = COc1cccc2c([C@H](C)[C@H](N)C(=O)O)c[nH]c12; dPro(trans-4-NMe2) = CN(C)[C@@H]1CN[C@@H](C(=O)O)C1; Trp(7-CN) = N#Cc1cccc2c(C[C@H](N)C(=O)O)c[nH]c12; Trp(7-Cl) = N[C@@H](Cc1c[nH]c2c(Cl)cccc12)C(=O)O; Biotin = O=C1N[C@H]2[C@H](CS[C@H]2CCCCC(=O)*)N1; Phe(4-COOH) = N[C@@H](Cc1ccc(C(=O)O)cc1)C(=O)O; Trp(7-aza) = N[C@@H](Cc1c[nH]c2ncccc12)C(=O)O; Pip(4-aza) = O=C(O)[C@@H]1CNCCN1; hPhe = N[C@@H](CCc1ccccc1)C(=O)O; 4Pal = N[C@@H](Cc1ccncc1)C(=O)O; NMeE = CN[C@@H](CCC(=O)O)C(=O)O; Cit = NC(=O)NCCC[C@H](N)C(=O)O; NMeS = CN[C@@H](CO)C(=O)O; αMeS = C[C@](N)(CO)C(=O)O; NMeA = CN[C@@H](C)C(=O)O; Nle = CCCC[C@H](N)C(=O)O; Pip2c = not defined here; dNMeA = CN[C@H](C)C(=O)O; AEA = NCCOCC(=O)O; Sar = CNCC(=O)O
What was measured:
[1] = molecular target: T1, TNFR1 on THP-1 Lucia NF-kB reporter cells, P19438; test: cell-based or functional assay
T1 chain: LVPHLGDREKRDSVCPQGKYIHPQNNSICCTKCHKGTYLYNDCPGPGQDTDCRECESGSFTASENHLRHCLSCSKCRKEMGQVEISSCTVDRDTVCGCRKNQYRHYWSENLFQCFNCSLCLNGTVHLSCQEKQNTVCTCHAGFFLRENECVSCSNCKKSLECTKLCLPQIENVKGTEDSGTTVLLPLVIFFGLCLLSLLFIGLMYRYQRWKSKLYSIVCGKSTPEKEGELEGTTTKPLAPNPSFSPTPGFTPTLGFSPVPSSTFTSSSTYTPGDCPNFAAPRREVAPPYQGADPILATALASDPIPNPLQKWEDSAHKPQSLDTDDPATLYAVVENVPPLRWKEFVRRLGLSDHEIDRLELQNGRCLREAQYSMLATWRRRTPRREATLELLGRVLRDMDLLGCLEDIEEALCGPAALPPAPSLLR

[2] = molecular target: T2, TNFR1 on THP-1 Lucia NF-κB cells, P19438; test: cell-based or functional assay
T2 chain: T1 chain

[3] = molecular target: T3, C'-terminally 6His-tagged human soluble TNFR1 (sTNFR1, residues 1-211) (human); test: TR-FRET displacement of biotinylated peptide SEQ ID NO. 1 from sTNFR1-6His
T3 chain: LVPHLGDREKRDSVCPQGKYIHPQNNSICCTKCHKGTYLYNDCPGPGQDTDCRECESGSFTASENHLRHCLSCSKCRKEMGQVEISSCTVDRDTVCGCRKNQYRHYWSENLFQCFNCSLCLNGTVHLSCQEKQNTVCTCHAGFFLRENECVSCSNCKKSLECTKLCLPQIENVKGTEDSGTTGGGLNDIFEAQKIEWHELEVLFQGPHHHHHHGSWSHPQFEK

[4] = molecular target: T4, Recombinant human TNFR1 extracellular domain (ECD) protein, biotinylated via C-terminal avi-tag (human); test: SPR, peptide analyte on captured biotinylated TNFR1 ECD
T4 chain: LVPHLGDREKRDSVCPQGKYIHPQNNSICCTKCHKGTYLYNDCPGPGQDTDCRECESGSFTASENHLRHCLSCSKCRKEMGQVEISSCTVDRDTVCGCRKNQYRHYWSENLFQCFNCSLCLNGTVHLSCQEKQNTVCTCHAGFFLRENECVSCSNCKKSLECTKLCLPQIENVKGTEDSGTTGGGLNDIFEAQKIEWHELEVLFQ

[5] = molecular target: T5, recombinant human TNFR1 extracellular domain (ECD), biotinylated via C-terminal Avi-tag, construct SEQ. ID NO. P2 (human); test: SPR (Cytiva 8K/8K+), peptide analyte over captured biotinylated human TNFR1 ECD
T5 chain: T4 chain

[6] = molecular target: T6, TNFR1 on THP-1 Lucia NF-κB reporter cells, P19438; test: cell-based or functional assay
T6 chain: T1 chain

[7] = molecular target: T7, human soluble TNFR1, C-terminally 6His-tagged (sTNFR1-6His, residues 1-211), SEQ. ID NO. P1 (human); test: TR-FRET displacement of biotinylated peptide SEQ ID NO. 1 from sTNFR1-6His; 4-parameter fit
T7 chain: T3 chain

[8] = molecular target: C'-terminally 6His-tagged human soluble TNFR1 (sTNFR1, residues 1-211) (human); test: TR-FRET displacement of biotinylated peptide SEQ ID NO. 1 from sTNFR1-6His; remark: listed apart in the source
[9] = molecular target: human soluble TNFR1, C-terminally 6His-tagged (sTNFR1-6His, residues 1-211), SEQ. ID NO. P1 (human); test: TR-FRET displacement of biotinylated peptide SEQ ID NO. 1 from sTNFR1-6His; Morrison-based 5-parameter fit

## {CH2CO}-FYSW[Sar]NYWSYY[Sar]WCG[AEA]K(Biotin) (thioether N-14) [SEQ ID NO. 1]
[1]
  THP-1 IC50: 227 nM

B1: SEQ ID NO. 242 (peptide)
peptide: {CH2CO}-KYSW[dP]Q[4Pal]W[αMeS][Phe(4-COOH)]Y[Sar]WC-NH2
modifications: thioether N-14
SMILES: CN1CC(=O)N[C@@H](Cc2c[nH]c3ccccc23)C(=O)N[C@H](C(N)=O)CSCC(=O)N[C@@H](CCCCN)C(=O)N[C@@H](Cc2ccc(O)cc2)C(=O)N[C@@H](CO)C(=O)N[C@@H](Cc2c[nH]c3ccccc23)C(=O)N2CCC[C@@H]2C(=O)N[C@@H](CCC(N)=O)C(=O)N[C@@H](Cc2ccncc2)C(=O)N[C@@H](Cc2c[nH]c3ccccc23)C(=O)N[C@@](C)(CO)C(=O)N[C@@H](Cc2ccc(C(=O)O)cc2)C(=O)N[C@@H](Cc2ccc(O)cc2)C1=O
[2]
  THP-1 IC50: 3 nM
[3]
  IC50: 1.21 nM
[4]
  Kd: 0.3 nM

B2: SEQ ID NO. 256 (peptide)
peptide: {CH2CO}-KYSW[dP][Cit][4Pal]W[αMeS][Phe(4-COOH)]Y[Sar]WC-NH2
modifications: thioether N-14
SMILES: CN1CC(=O)N[C@@H](Cc2c[nH]c3ccccc23)C(=O)N[C@H](C(N)=O)CSCC(=O)N[C@@H](CCCCN)C(=O)N[C@@H](Cc2ccc(O)cc2)C(=O)N[C@@H](CO)C(=O)N[C@@H](Cc2c[nH]c3ccccc23)C(=O)N2CCC[C@@H]2C(=O)N[C@@H](CCCNC(N)=O)C(=O)N[C@@H](Cc2ccncc2)C(=O)N[C@@H](Cc2c[nH]c3ccccc23)C(=O)N[C@@](C)(CO)C(=O)N[C@@H](Cc2ccc(C(=O)O)cc2)C(=O)N[C@@H](Cc2ccc(O)cc2)C1=O
[2]
  THP-1 IC50: 6.1 nM
[3]
  IC50: 1.84 nM
[4]
  Kd: 1.4 nM

B3: SEQ ID NO. 260 (peptide)
peptide: {CH2CO}-[hPhe]YSW[NMeA]N[4Pal]W[αMeS][Phe(4-COOH)]R[Sar]WC-NH2
modifications: thioether N-14
SMILES: C[C@H]1C(=O)N[C@@H](CC(N)=O)C(=O)N[C@@H](Cc2ccncc2)C(=O)N[C@@H](Cc2c[nH]c3ccccc23)C(=O)N[C@@](C)(CO)C(=O)N[C@@H](Cc2ccc(C(=O)O)cc2)C(=O)N[C@@H](CCCNC(=N)N)C(=O)N(C)CC(=O)N[C@@H](Cc2c[nH]c3ccccc23)C(=O)N[C@H](C(N)=O)CSCC(=O)N[C@@H](CCc2ccccc2)C(=O)N[C@@H](Cc2ccc(O)cc2)C(=O)N[C@@H](CO)C(=O)N[C@@H](Cc2c[nH]c3ccccc23)C(=O)N1C
[2]
  THP-1 IC50: 50.1 nM
[3]
  IC50: 10.2 nM
[4]
  Kd: 6 nM

## FYSWGNYWSYYGWCGEE (modifications not checked) [SEQ ID NO. 289 (Example No. 289) macrocyclic peptide]
[5]
  Kd: 7.43 nM
[6]
  THP-1 IC50: 36.4 nM
[7]
  IC50: 9.87 nM

B4: SEQ ID NO. 255 (peptide)
peptide: {CH2CO}-[Nle][4Pal][Pip(4-aza)][Trp(7-aza)][NMeE]N[4Pal][Trp(7-Cl)][αMeS][Phe(4-COOH)]Y[Sar][Trp(βS-Me,7-OMe)]CGEE-NH2
modifications: thioether N-14
SMILES: CCCC[C@@H]1NC(=O)CSC[C@@H](C(=O)NCC(=O)N[C@@H](CCC(=O)O)C(=O)N[C@@H](CCC(=O)O)C(N)=O)NC(=O)[C@H]([C@@H](C)c2c[nH]c3c(OC)cccc23)NC(=O)CN(C)C(=O)[C@H](Cc2ccc(O)cc2)NC(=O)[C@H](Cc2ccc(C(=O)O)cc2)NC(=O)[C@](C)(CO)NC(=O)[C@H](Cc2c[nH]c3c(Cl)cccc23)NC(=O)[C@H](Cc2ccncc2)NC(=O)[C@H](CC(N)=O)NC(=O)[C@H](CCC(=O)O)N(C)C(=O)[C@H](Cc2c[nH]c3ncccc23)NC(=O)[C@@H]2CNCCN2C(=O)[C@H](Cc2ccncc2)NC1=O
[8]
  IC50: 0.7 nM
  Kd^app: 1.01 nM

B5: SEQ ID NO. 264 (peptide)
peptide: {CH2CO}-[Nle]H[Pip2c][Trp(7-aza)][NMeE]N[4Pal][Trp(7-Cl)][αMeS][Phe(4-COOH)]Y[Sar][Trp(βS-Me,7-OMe)]C-NH2
modifications: thioether N-14; reading uncertain; also: printed as cyclo(ClAc-Nle-H-Pip2c-Trp7az-NMeE-N-4Pal-Trp7Cl-aMeS-Phe4COOH-Y-Sar-SbMeW7OMe-C)-NH2
[8]
  IC50: 1.49 nM

## {CH2CO}-[Nle][4Pal][NMeS]W[NMeE]N[4Pal][Trp(7-Cl)][αMeS][Phe(4-COOH)][Phe3CONH2][Sar][Trp(βS-Me,7-OMe)]C-NH2 (thioether N-14) [SEQ ID NO. 270]
[8]
  IC50: 0.55 nM

## {CH2CO}-[Nle][4Pal][Pip2c]W[dP]N[4Pal][Trp(7-Cl)][αMeS][Phe(4-COOH)]Y[dNMeA][Trp(βS-Me,7-OMe)]C-NH2 (thioether N-14; reading uncertain) [SEQ ID NO. 276]
[8]
  IC50: 2.41 nM

B6: SEQ ID NO. 287 (Example No. 287) macrocyclic peptide (peptide)
peptide: cyclo([bhcLeu][Nle][4Pal][Pip(4-aza)][Trp(7-aza)][dPro(trans-4-NMe2)]N[Phe(4-COOH)][Trp(7-CN)][αMeS][Phe(4-COOH)][RbOHPhe4CONH2][Sar][Trp(βS-Me,7-OMe)])
SMILES: CCCC[C@@H]1NC(=O)[C@@H]2CC[C@@H](C2)NC(=O)[C@H]([C@@H](C)c2c[nH]c3c(OC)cccc23)NC(=O)CN(C)C(=O)[C@H]([C@H](O)c2ccc(C(N)=O)cc2)NC(=O)[C@H](Cc2ccc(C(=O)O)cc2)NC(=O)[C@](C)(CO)NC(=O)[C@H](Cc2c[nH]c3c(C#N)cccc23)NC(=O)[C@H](Cc2ccc(C(=O)O)cc2)NC(=O)[C@H](CC(N)=O)NC(=O)[C@H]2C[C@H](N(C)C)CN2C(=O)[C@H](Cc2c[nH]c3ncccc23)NC(=O)[C@@H]2CNCCN2C(=O)[C@H](Cc2ccncc2)NC1=O
[9]
  Kd^app: 0.22 nM
